Earlier results in patent publication US5925739A, “Pharmaceutical formulation for subcutaneous intramuscular or intradermal administration of factor VIII” (Pharmacia & Upjohn AB, priority 1994, dated 1999).

Settings: hemophilia B patients, injected into subcutaneous tissue

Substance: human factor IX: coagulation factor IX, molecular mass of about 56 kDa
- transport into the circulation: poorly and very slowly transported into the circulation
